Results: patent publication US20070243589A1 (Pfizer, published 2007)

T1: human IL-22 (human, UniProt Q9GZX6 34-179)
T1 sequence: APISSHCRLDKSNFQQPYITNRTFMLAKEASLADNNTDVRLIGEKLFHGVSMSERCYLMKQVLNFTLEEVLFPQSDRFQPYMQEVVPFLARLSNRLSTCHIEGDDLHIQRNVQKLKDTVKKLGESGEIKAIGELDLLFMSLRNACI

T2: IL-26 (human, UniProt Q9NPH9)
T2 construct: coated on the ELISA plate at 1 µg/ml; also called human IL-26
T2 sequence (cytokine, looked up): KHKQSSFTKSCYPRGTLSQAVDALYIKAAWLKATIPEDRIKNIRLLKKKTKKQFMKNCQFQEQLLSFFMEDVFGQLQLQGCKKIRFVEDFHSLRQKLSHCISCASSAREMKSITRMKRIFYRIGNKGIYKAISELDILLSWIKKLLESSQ

T3: biotinylated IL-22 with an N-terminal His/FLAG tag (bio.IL-22H/F) (human, UniProt Q9GZX6 34-179, biotinylated (site not stated))
T3 construct: not shown: N-terminal His/FLAG tag
T3 sequence: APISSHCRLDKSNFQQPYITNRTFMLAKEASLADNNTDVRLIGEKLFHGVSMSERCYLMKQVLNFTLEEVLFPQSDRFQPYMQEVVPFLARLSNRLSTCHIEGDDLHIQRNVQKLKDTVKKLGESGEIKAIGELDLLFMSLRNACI


Experiments:
[1] = biological target: T1, human IL-22; assay: cell-based or functional assay
[2] = biological target: T1, human IL-22; assay: cell-based or functional assay; remark: listed apart in the source
[3] = biological target: T2, IL-26; assay: ELISA: plate coated with 1 µg/ml human IL-26, IgG at 1 µg/ml, HRP anti-human IgG, A450
Procedure: (§1) Cross species reactivity of germlined and non-germlined optimized antibodies were determined as follows: ELISA plates (Costar, Cat. #3590) were coated overnight with 1 μg/ml of rat, mouse, or human IL-22 or human IL-26 in PBS buffer. Plates were washed with PBST buffer (0.05% Tween20 in PBS) 3 times, then blocked with 1% BSA (Sigma A8918)/PBST for 1 hr at RT. Antibodies were added at 1 μg/ml, incubated 1 hr at 25° C. […] The plates were incubated for 1 hour at 25° C., then washed with PBST, and developed with TMB (KPL, Cat. #50-76-04). Reaction was stopped with 0.18 M H₂S0₄. Plates were read at OD 450 nm.

[4] = biological target: T4, BSA (bovine, UniProt P02769); assay: ELISA: wells labelled BSA, IgG at 1 µg/ml, HRP anti-human IgG, A450
T4 construct: background wells labelled BSA; also called bovine serum albumin
Procedure: as §1

[5] = biological target: T3, biotinylated IL-22 with an N-terminal …; assay: IL-22 receptor complex inhibition assay (bio.IL-22H/F binding to IL-22 receptor complex, DELFIA), scFv
Procedure: Both the IL-22/IL-22R binding assay (described above) and the IL-22/IL-22 receptor complex assay (described below) were used. ScFv concentrations were titrated in order to establish the clone potencies as measured by assay IC₅₀ values. These were determined using GraphPad Prism software and four-parameter logistic equation curve fitting.
Microtiter plates were coated with an IL-22 receptor complex antibody (1 μg/ml in PBS), and incubated for 1.5 hours at room temperature. Plates were washed three times in PBST, and blocked for 1 hour at room temperature with 2% MPBS. After a further 3 washes, diluted cell conditioned medium containing an IL-22 receptor complex was added and incubated overnight at 4° C. Crude scFv supernatants were prepared as described above. The following day, 25 μl of diluted scFv sample and 25 μl of bio.IL-22H/F (6 ng/ml) were added to the washed plates, and incubated for 1.5 hours at room temperature. Plates were washed 3 times in PBST, then binding of bio.IL-22H/F to the IL-22 receptor complex was detected with Europium-Streptavidin and the DELFIA® reagent kit (PerkinElmer). Time Resolved Fluorescence was measured using a Victor 2™ Plate Reader (Perkin Elmer).

T4 sequence (P02769 25-607 limits assumed): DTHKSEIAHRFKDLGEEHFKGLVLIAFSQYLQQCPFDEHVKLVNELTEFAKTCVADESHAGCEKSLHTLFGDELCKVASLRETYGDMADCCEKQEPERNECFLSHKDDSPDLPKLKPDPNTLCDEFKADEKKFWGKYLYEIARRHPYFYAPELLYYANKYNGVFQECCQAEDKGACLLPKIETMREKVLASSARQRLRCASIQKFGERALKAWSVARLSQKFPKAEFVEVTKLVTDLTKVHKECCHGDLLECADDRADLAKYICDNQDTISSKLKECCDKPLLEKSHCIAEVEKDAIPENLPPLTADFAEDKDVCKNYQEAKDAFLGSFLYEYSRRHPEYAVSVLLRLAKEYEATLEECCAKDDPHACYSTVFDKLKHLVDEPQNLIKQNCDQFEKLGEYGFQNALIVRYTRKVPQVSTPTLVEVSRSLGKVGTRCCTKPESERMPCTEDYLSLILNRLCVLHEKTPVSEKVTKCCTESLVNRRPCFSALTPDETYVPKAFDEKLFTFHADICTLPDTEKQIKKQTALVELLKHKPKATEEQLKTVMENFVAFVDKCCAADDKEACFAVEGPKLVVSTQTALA

Row | Binder | IC50 (pM) of non-germlined IgG in BaF3-IL-22R proliferation assay [1] [pM] | IC50 of IgG in BaF3-IL-22 proliferation assay [2] [nM] | IC50 (pM) of germlined IgG in BaF3-IL-22R proliferation assay [1] [pM] | IC50 [5] [nM] | binding result [3] | binding result [4]
1 | 062A09 IgG (non-germlined) (antibody, V domains shown) VH: QVQLVESGAEVKKPGASVKVSCKASGYTFTSYGISWVRQAPGQGLEWMGWVSAYTGNTNYAQKFQGRVTMTTDTSTSTAYMELRGLRSDDTAVYYCARDRGYYDAFDIWGQGTLVTVSS VL: DIQMTQSPSTLSASIGDRVTITCRASEGIYHWLAWYQQKPGKAPKLLIYKASSLASGAPSRFSGSGFGTDFTLTISSLQPDDFATYYCQQMGEYNATIGGGTKLEIKR | 108 | 0.083 | – | – | – | –
2 | 166B06 IgG (non-germlined) (antibody, V domains shown) VH: EVQLVQSGAEVKKPGASVKVSCQASGYTFSDYYIHWVRQTPGQGFEWMGWVNPDTGGTRYAQKFQGWVTMTRDMSNTTAYMELPRLRDDDTAVYYCARDLTGFDPFDIWGQGTLVTVSS VL: QSVLTQPPSVSVAPGKTATITCGGNNFRNKRVHWYQQRPGQAPVLVIYYDSDRPSGIPERFSGSRSGNTATLTISRVEAGDEADFYCQVWDLFNDNGVFGGGTKLTVLG | 109 | 0.071 | – | – | – | –
3 | 376B10 IgG (non-germlined) (antibody, V domains shown, IgG) VH: EVQLVQSGAEVKKPGASVKVSCQASGYTFSDYYIHWVRQTPGQGFEWMGWVNPDTGGTRYAQKFQGWVTMTRDMSNTTAYMELPGLRDDDTAVYYCARDLTGYDQYTAWGQGTLVTVSS VL: QSVLTQPPSVSVAPGKTATITCGGNNFRNKRVHWYQQRPGQAPVLVIYYDSDRPSGIPERFSGSRSGNTATLTISRVEAGDEADFYCSTFDPFTDRPLFGGGTKLTVLG | – | 0.119 | – | – | no binding (tested: 1 µg/ml (single concentration)) | no binding (tested: 1 µg/ml (single concentration))
4 | 166B06 germlined IgG (antibody, V domains shown) VH: QVQLVQSGAEVKKPGASVKVSCKASGYTFSDYYIHWVRQAPGQGLEWMGWVNPDTGGTRYAQKFQGRVTMTRDMSISTAYMELSRLRSDDTAVYYCARDLTGFDPFDIWGQGTLVTVSS VL: SSVLTQPPSVSVAPGKTARITCGGNNFRNKRVHWYQQKPGQAPVLVIYYDSDRPSGIPERFSGSRSGNTATLTISRVEAGDEADYYCQVWDLFNDNGVFGGGTKLTVLG | – | – | 169 | – | no binding (tested: 1 µg/ml (single concentration)) | no binding (tested: 1 µg/ml (single concentration))
5 | 166G05 germlined IgG (antibody, V domains shown) VH: QVQLVQSGAEVKKPGASVKVSCKASGYTFSDYYIHWVRQAPGQGLEWMGWVNPDTGGTRYAQKFQGRVTMTRDMSISTAYMELSRLRSDDTAVYYCARDLTGFDPFDIWGQGTLVTVSS VL: SSVLTQPPSVSVAPGKTARITCGGNNFRNKRVHWYQQKPGQAPVLVIYYDSDRPSGIPERFSGSRSGNTATLTISRVEAGDEADYYCQVWDFLTDSGSFGGGTKLTVLG | – | – | 109 | – | no binding (tested: 1 µg/ml (single concentration)) | no binding (tested: 1 µg/ml (single concentration))
6 | 354A08 germlined IgG (antibody, V domains shown) VH: QVQLVQSGAEVKKPGASVKVSCKASGYTFTDYYMHWVRQAPGQGLEWVGWINPYTGGAFYAQKFRGRVTMTRDTSISTAYMELSRLRSDDTAVYYCAREPERFGDSTGQVWGRGTLVTVSS VL: QAVLTQPPSVSGAPGQRVTISCTGSSSNIGAGYGVHWYQQLPGTAPKLLIYGNSNRPSGVPDRFSGSKSGTSASLAITGLQAEDEADYYCYHWDKEQSGYVFGGGTQLTVLG | – | 0.079 | 79 | – | no binding (tested: 1 µg/ml (single concentration)) | no binding (tested: 1 µg/ml (single concentration))
7 | 087B03 germlined IgG (antibody, V domains shown) VH: EVQLVESGGGVVRPGGSLRLSCAASGFTFDDYGMNWVRQAPGKGLEWVSGVNWNGGTRDYAASVKGRFTISRDNAKNSLYLQMNSLRAEDTALYHCARGWYSGAAWNMGYWGRGTLVTVSS VL: QAALTQPASVSGSPGQSITISCTGASGDVGAYNFVSWYQQHPGKAPKLIIYDVNKRPSGVSNRFSGSKSGNTASLTISGLQAEDEADYYCSSYTSTFSVVFGGGTKLTVLG | – | – | 118 | – | no binding (tested: 1 µg/ml (single concentration)) | no binding (tested: 1 µg/ml (single concentration))

Continued, in another order:

Row | IC50 (pM) of non-germlined IgG in BaF3-IL-22R proliferation assay [1] [pM] | IC50 of IgG in BaF3-IL-22 proliferation assay [2] [nM] | IC50 (pM) of germlined IgG in BaF3-IL-22R proliferation assay [1] [pM] | IC50 [5] [nM] | Binder | binding result [3] | binding result [4]
8 | – | 0.1 | – | – | 375G06 IgG (non-germlined) (antibody, V domains shown, IgG) VH: EVQLVQSGAEVKKPGASVKVSCQASGYTFSDYYIHWVRQTPGQGFEWMGWVNPDTGGTRYAQKFQGWVTMTRDMSNTTAYMELPRLRDDDTAVYYCARDLTGYDYYDRWGQGTLVTVSS VL: QSVLTQPPSMSVAPGKTATITCGGNNFRNKRVHWYQQRPGQAPVLVIYYDSDRPSGIPERFSGSRSGNTATLTISRVEAGDEADFYCQVWDFLADEAMFGGGTKLTVL | no binding (tested: 1 µg/ml (single concentration)) | no binding (tested: 1 µg/ml (single concentration))
9 | 366 | 0.097 | – | – | 166G05 IgG (non-germlined) (antibody, V domains shown) VH: EVQLVQSGAEVKKPGASVKVSCQASGYTFSDYYIHWVRQTPGQGFEWMGWVNPDTGGTRYAQKFQGWVTMTRDMSNTTAYMELPRLRDDDTAVYYCARDLTGFDPFDIWGQGTLVTVSS VL: QSVLTQPPSVSVAPGKTATITCGGNNFRNKRVHWYQQRPGQAPVLVIYYDSDRPSGIPERFSGSRSGNTATLTISRVEAGDEADFYCQVWDFLTDSGSFGGGTKLTVLG | – | –
10 | – | 0.053 | 53 | – | 356A11 germlined IgG (antibody, V domains shown) VH: QVQLVQSGAEVKKPGASVKVSCKASGYTFTNYYMHWVRQAPGQGLEWVGWINPYTGSAFYAQKFRGRVTMTRDTSISTAYMELSRLRSDDTAVYYCAREPEKFDSDDSDVWGRGTLVTVSS VL: QAVLTQPPSVSGAPGQRVTISCTGSSSNIGAGYGVHWYQQLPGTAPKLLIYGDSNRPSGVPDRFSGSKSGTSASLAITGLQAEDEADYYCQSYDNSLSGYVFGGGTQLTVLG | no binding (tested: 1 µg/ml (single concentration)) | no binding (tested: 1 µg/ml (single concentration))
11 | – | – | – | 358 | GIL45 scFv (non-germlined parent) (scFv) scFv: QMQLVQSGGGVVQPGRSLRLSCAASGFTFSNYGMYWVRQAPGKGLEWVAHIWYDGSNEKYADSVKGRMTVSRDNSRNTLYLQMNSLRAEDTAVYYCATEQHWITAFDIWGKGTLVTVSSGGGGSGAGGSGGGGSQSVLTQPASVSGSPGQSITISCTGTSSDVGGYNYVSWYQQHPGKAPKLMIYEGSKRPSGVSNRFSGSKSGNTASLTISGLQAEDEADYYCSSYTTRSTRVFGGGTKLTVLGAAAH | – | –
12 | – | 0.126 | – | – | 367D04 IgG (non-germlined) (antibody, V domains shown, IgG) VH: EVQLVESGGGVVRPGGSLRLSCAASGFTFDDYGMNWVRQAPGKGLEWVSGVNWNGGTRDYAASVKGRFTISRDNAKNSLYLQMNSLRAEDTALYYCARGWYSGSPWSLGHWGRGTLVTVSS VL: QAVLTQPSSVSGSPGQSVTISCTGASGDVGAYNFVSWYQQHPGKTPKLIIYDVNKRPSGVSNRFSGSKSGNTASLTISRLQAEDESDYYCSSYTSRYTTEFGGGTKVTVLG | no binding (tested: 1 µg/ml (single concentration)) | no binding (tested: 1 µg/ml (single concentration))
